Earlier results on two molecules are cited in publication PMC4086743 (Amino acids, 2012).

B1: proCrp4: full-length precursor of Crp4 with electronegative proregion, recombinant (protein, UniProt P28311 20-92, looked up)
pro-form: DPIQNTDEETKTEEQPGEEDQAVSISFGGQEGSALHEKSLRGLLCYCRKGHCKRGERVRGTCGIRFLYCCPRR
modifications: pro-form
Turning to B1, the “resistance to proteolysis by MMP7” value with MMP7 is “completely resistant”.

B2: HD5: human Paneth cell α-defensin HD5 (peptide, UniProt Q01523 20-94, looked up)
Defensin alpha 5: ESLQERADEATTQKQSGEDNQDLAISFAGNGLSALRTSGSQARATCYCRTGRCATRESLSGVCEISGRLYRLCCR
modifications: Defensin-5
For the molecule B2, the sensitivity to chymotrypsin result with chymotrypsin was “insensitive”. Moreover, in the data set on trypsin, the sensitivity to trypsin result is “insensitive”.
